Data from a protein production outcome set (Wang et al. 2014).

Assay: label from the status in PepcDB records

Row | Sequence | protein production
1 | MPEQQLADLSQEVAASGDSIAFAADFAVIVVVATVIGLLARQLGQPTIVAYILTGVVLGPVALDVVTQEGLVDVMAELGLGFLLFLLGLKMRFDDIREILAPITNVAIGQTVLQTALAFLVALLLGFATDEILVIALATVFGATPVIVKVLTDKDEITTLPGKIDVGVLIVQDIYLVVVLALFGAEQLGDAGEIATTLGVIFVMMSFIGLFSLASSRYLLPHLFERIANNKDVFLIVAIAWAFLFIAIAEGFDLSVEVGAFLAGLSLAQLPYSKELQDRITPITDFFILVFFASIGLQIESVGSLLTHWQEALIASVVLMVGNFWIMFYLIDREGFGPETSFLGSINMVQVSEFSLVVGALAFQQGYIGADVLGYLTLMALLTMTASTYIILYNHAIYERVAPWIRRISSGDGIDEGLPEYENHAVAIGYDEVTEKALPVLDEAFEEVVIIDRNTEHIAEIREAGEYESIFGDFRHKEVRKASNLKEAEFVLSSSVQREINEALLQETADDTPVFVEAERIADAHRLYEAGASYVVMPPHLAAEKLGEYLELYLTDQSVFHTRIQDDIEQIRRRASQATTRRRMASDTGVDLRTSGGDDD | failed
2 | MPERRTVALVTLGCARNEVDSEELAGRLEADGWQLVEDAEDADVAVVNTCGFVEAAKKDSVDALLEANDLKGHGRTQAVVAVGCMAERYGKELAEALPEADGVLGFDDYTNISDRLQTILNGGIHAAHTPRDRRKLLPISPAERQSAGADVALPGHGAPEGLPEDLPEGLAPESGPRAPLRRRLDGSPVASVKLASGCDRRCSFCAIPSFRGSFISRRPSDVLGETRWLAEQGVKEVMLVSENNTSYGKDLGDIRLLETLLPELAEVDGIERVRVSYLQPAEMRPGLIDVLTSTPKIAPYFDLSFQHSAPDVLRAMRRFGDTDRFLELLDTIRSKAPQAGVRSNFIVGFPGETEADLAELERFLTGARLDAIGVFGYSDEEGTEAATYGHKLDEDVVAARLARVSRLAEELVAQRAEERVGETVHVLVESIDDEEGAVGRAEHQAPETDGQVLFTSGEGLTVGRMVEAKVVGTEGVDLVAEPLPGSLVCTEEAGR | failed
3 | MPETMHDNALTQSCTLVTSPELGTMHAMPTYIATKNGEPTAIAIESIAPDGYNGEIKVITGIDNQGKILGTRVLSHQETPGLGDKIDLRVTSWILGFTGKQVTEDNWNSWKVRKDGGDFDQFTGATITPRAVIKAVRNTVNYVNQSRDEILSQPLEHHHHHH | not failed
4 | MPEVRAERYIPAPPERVYRLAKDLEGLKPYLKEVESLEVVAREGARTRSRWVAVAMGKKVRWLEEEEWDDENLRNRFFSPEGDFDRYEGTWVFLPEGEGTRVVLTLTYELTIPIFGGLLRKLVQKLMQENVESLLKGLEERVLAASS | not failed
5 | MPFEIGTMPIMSIDPKLLEVLACPQDKGPLKYLEAEQVLVNERLEIAYRIDDGIPVMLVDESIAWPPAEKLEHHHHHH | failed
6 | MPFIYRRRVQFYETDAQGIVHHSNYFRYFEEARGEFLRSKGFPYSKMRDMGLEVVLLNAYCEYKKPLFYDDVFEVHLNLEELSRFTFTFSYIVFKEDIAVAKANTKHCMVKNGKIVSIPKEVLEVLKD | not failed
7 | MPFNQNVSLECYNGILSMLLNGAPLADILHALVLKIEDQRLGTHASVLLLSEDGKRVLTGAAPHLPDSYNQVIHGVEIGPEVGSCGTAAYTGQRVIVEDIEHHPYWALYKSFALVHGLRACWSEPIKDTQGKVLGTFAMYYKEIKSPTVADLTLIAEAARLASLAIERSRSLEFQRLEHHHHHH | not failed
8 | MPFWLEVVINVAFSYLASVGFALTINVPHRALNLSGISGTVGWMAYWFCFRLGAGRMASNLIGAFLIGILGLVFARIKKCPVTVFNIPALVPLVPGMPAYQAVRAFVVGDYIQGQELILRVAIVTGAIGLGFLLSTMCTEAFYKIRYRHFRNTGLYFKRKK | failed
9 | MPGFKSDLLIKRMDNEMETWILPTIPAFESTAEIAKIYRVRHQEAIEKSSDIYHFSGFIQEQIVCSLTLTVMGDCARIDDVATFPKYQKNGYATQLILSELQILKDTNISWCFLEASADGLNIYKKIG | not failed
10 | MPGTVGVLSGARSLLLSMVASVTAAGGNAAIVGQPDIGLLAAVEMGADLSRLAMIPDPGTDPVEVAAVLIDGMDLVVLGLGGRRVTRARARAVVARARQKGCTLLVTDGDWQGVSTRLAARVCGYEITPALRGVPTPGLGRISGVRLQINGRGRLEHHHHHH | failed
11 | MPGTVSPAPSLQSTTARICPSIRRPTMSRFGALRLPLAVCLAVLLTIASGPARAQPADAPLDEADYGQWERLGGATLSPEGTWMATPIRRVNGNHELRIHHTRRDTTRTVAFGRSPAFSADGQWLAYSIGMSEERRKKRRKQEKPVRRRLGLLNLATGDTTVVPAVSGFAFSDGGRYLAMRRYPPQEAPDDLRGADLLVRDLEAETYTSFGNVADMAWQHEAPHLALTIDGRTETGNGVRLYDAATGRLQTLASTPGDYTGLSWRPAEDDLAALRARDSDDWQHETHVVLAWTGVNDGAPERRQFDPATAGAFPDSLRIVDHRTPAWATERERLFFGVQKREAVAPDTAQADSAAADSLEDYGPAGVKVWHTSDVEIIPRQEVQAEQDREDNYLTAWHLGRSGEAHWTRLGTELTEDVQVLHGGARAVGLDQTPYREERMFGPVYHDLYAIDVATGEREQVAEKVQFFEGPSANGRYLLWLKNDQYHAYDLQQETTNTITADVPVPVVDVDDDHTVEQKPPFGIAGWTAGDRSVLVYSEYDVWRIAPDGSSTERLTTGRADSVRHRYVDLTDEAPGEADVIPRNEPIYWDLYDEWTEEHGYARASALTDTPERMVWKPKMMTGLTKADSADVYAYRVEDFEDSPDYFRAGPQLADARQVTSTNPFQDDYAWGRSDLVAFRNANGKKLQGALFYPADYDPDKTYPMITYIYETRSPQARSYVVPTREHPYNTTTFTQEGYIVFQPDITYRPRDPGNSAVDAIVPGVQAAAEAAAVDTSRIGLVGHSWGGYQTTFTATQTDLFATAVAGAPLTNMVSMYNSIYWRSGGTDARIFEISQGRMGVPPWEDMDAYVANSPLHHIESLNTPFLMAFGTDDGAVEFNQGVEFYNAARRADKELAFLVYDGENHGISRKEKNTVDYRNRVLEWFDHYLKGDEGPAWIQDGVPFLEQVERQEEAAVSR | failed
12 | MPHFTKRPAQPQAALAEAAGLRWLAEASSAVAQVVSADAEQITTVGVETQLPTPDAAFKAGEELARIHLAGAPAFGCPPAGWAGLNYIGTQGQACLSTPTWGVFYSQQRVLPFARRARRRNHLTEHALWVVEAACDLISELPDDVPPARIHGDLWFGNLLFGTDGPVFIDPAAHGGHPETDLAMLDVFGAPYLDEIREGYLSINPLPDGWRERTPMHQLHPLAVHAASHGPSYGVELLHAAKATLKLLDLEHHHHHH | failed
13 | MPHLRTILPQLRNNWFFIALLTSCGLWCFFAPSLLGALLFSITVIRIVCTKSFPVILGGFLCSFLIVGGILIFQWLKPVSLLPKEVRLSGQLTILPDEIQVDGDQVKFPANWIVKGKRQKVMAFYQLKSVKEKQQWQQLTTTIQATAVGILDSPQGQTNKNGFNYQLFLKNQGIEAILFIEEIGQPRSFFSWRFKEIISGWRKWAMVHIQKNFAETSAMYMNALLLGFRNEEFAEISDKFSALGILHLFSLSGMHVSFFLRLFRLLMLRIARRTQESYFLWQCGFSLIYAGLTGFSVSVMRALLQTNLNTFNRRFNWQVPALDCWSLTLLVHLIVQPTLFFSVGGQFSYLLSFVLLFLEQTLVGYSSPFIKNCLGSFLLAVASLPILVQSFYEWPLLGSFLTFLLLPIFERFLLPLLTLSFFLVIIMPARYLAALLEPLFLTMNGLFEWVLVHLNPKLTIGYLNSWIQISLLLLIGFSMIYLADKSKKIFFSIGLLIVLINSKYLSPIGIVAMIDVGQGDSLFIQAPFHRKNTLIDTGGRLSFGKEAWRQRKNSRSGAEYSVIPFLKSQGVKRLDEVIITHAHEDHFGDLLAIAQKVPISVLYFPKGAAEANFSFRQVLKQLQKSGTDCRPILAPKRINGPVSFQILSPNKSSIGGNNDSIVFSTQLGGRHFLFTGDLEAEGEEQVLARYPQLKIDILKVGHHGSKTSSTKRFIKQLNPREALISAGLNNRFKHPHQETLATLEEQKINYYRTDLQGMIYYQWLPWQGLSKAKFVKEQD | failed
14 | MPHPAERSRHGRGWFEKLAEAASNLTSSPVFYCFCLLLVFAFIVAHAVGLELTWQLLIGDIMTAVNLLLLALLKNSERRAEHAIQHKLDSIAAALLEQREGHSRQAHEELRKAIGIEDEF | failed
15 | MPHPATMFFLFTLAVIFLSWIFDIYGLRVQLPQTGAEIRVQSLLSPEGIRWMLRNAITNFTGFAPLGMVLIAMFGIGVAQHSGFIDACVRQGVKNRKNTKRIILWVIILGLLSNIVGDAGYIILLPIAATLFYSVGLNPVAGIITAYVSVSCGYSANVVLSTMDPLIARTTQEAAIDSGVYQGNTGPLCNYYFMSVSTFVIGAIIYRITCKRLIPSLGQYEGKQIFEGYKQLSRKERRAMTMAIVMGMLYAAIILWATFSSWGILRGVNGGLIRSPFIMGILFLLSLGAAIMGMVYGFSSGRYRSDNDVIEGLAQPMKLLGGYLVIAFFAAQMFACLEYSHLDKCVAIIGANLLSSVQADPLWTLILFILFTATINLIMVSATAKWAFMAFIFVPVFARMGIEPDMTQCAFRIGDSATNAITPFMFYMPLVLTYMQQYDKQATYGSLLKYTWRYSVYILIGWTMLLFIWYLTGLPLGL | failed
16 | MPHSSTNITKAVLQGRGLYPISLVTGAMFTEEMYVVLESTTRAETFLTPMELQAKLMEYLTGTEVSLSPDLLALPDVESRAQYLMTTACELQLANGGYLQWYAVRLEKLEHHHHHH | not failed
17 | MPIELRRLRALRLAWGVALCLAVSFGIGLPVPILAPVFAVLLLAMRSQPLPLRAAPALALLVLLACGSGLLLIPLLRHAPLAGVLLVGVGVFLTLRYALKGGNGLLANLLVVGLTMIAAAGTSDFTLALSVVEALAKGMLLAVLGTSVVHTLFPEPANAPAPPVPPLLGSEHVSWVALRATLIVMPAFLLALIAPDQYMPLIMKAVSVGQQAGETRARHASRELIGSTLLAGVLAIALWVALSLFVHLWMFFLWVLLFALWQARRLYQAVPSRQSPAYWVSCLTTMLILLGQSVQDSAGGQDVYKAFAVRMALFLAVSVYASAMLIWIDRLRSRRGLLRG | failed
18 | MPIHSLSLAGFRSIRKLTLELDALNVVVGANGCGKSNLYKSIQLLHAAAEGGLSAALAAEGGAQKAMWAGGTRRGDKARVPKRMILSARLDDYDYELQLGYPEPSCSLFALDPLVKEESLWLAGHGRRPSTLLLERRNQAAFLCGVEGERNSYPASLRAEESLFGQLAEPHRYPELSQVRETLRNWRFYHEFAIWPGSPLRAPQVGIRSPVLAHDGANLAAAFQTIVEIGDHELLHSVLTDAFPDSRFLVDAQQGRFQMLMRRDGLLRPLEAAELSDGTLRFLCLAVALLSPRPPAFMALNEPENSLHPALLPALARLIAEASRHSQLWVTSHSPELAERIRRHRPLKTFQLSLRDGETVLQDDLEHHHHHH | failed
19 | MPIIGTKELITCDNTDFIHSGNDADRSGFILSVPVFGQDGSLRGSVSAIMLTSALRKLLPGSDYVIVNSGYGFESDQHKMSTALAADSRAFTAADPNLIYSEVIPLSLNDPRSAWRLWAGFPNSRFDNNMDVQSVRQFELAGYAAVAVVTLLALACWYAIGRTMTMQVEAAETLERRVEQRTAQIQHLATHDILTGLPNRGLLADTMDEALRSLRDDEKLAVHCVDLDRFKPVNDTLGHPIGDQLLGAVAKRLKHHAGETAMVARIGGDEFVILQLLLDGNDEAGVLASRVIHALSDEFSIQGHKINIGGSIGIAVFPDDGQNSETLIRNADLALYKAKMEGRGTCRSFEPGMDARLQERRQLESELALGVKKEQFVLHYQPLHDAKTSQLTGFEALVRWNHPRLGLLAPSEFIQLAEETGAIDALGEWIMRRACADAAKWPQPVKVAVNLSPAQFKQQGLSLQVAAALAASGLLPSRLELEITESVLLANNENTLNTLYSLRDLGISIAMDDFGTGYSSLSYLRSFPFNRIKIDRSFVSLMCESSESRAIVKAVAELGTTLGMTTTAEGVETEDQYRLVKENGCTDVQGWYFGRPMPASELHTLFEQPEALTA | failed
